Ends that are not written are not given here.
Key:
[1] = target: trypsin (UniProt P00760); experiment: pfu eluted from trypsin beads
[2] = target: agarose-immobilized anhydro-trypsin (UniProt P00760); experiment: phage titer after incubation with anhydrotrypsin beads
[3] = target: agarose-immobilized anhydro-trypsin (UniProt P00760); experiment: pfu acid eluted from anhydrotrypsin beads, experiment 2
[4] = target: agarose-immobilized anhydro-trypsin (UniProt P00760); experiment: pfu eluted from anhydrotrypsin beads
[5] = target: trypsin (UniProt P00760); experiment: pfu acid eluted from trypsin beads
[6] = target: agarose-immobilized anhydro-trypsin (UniProt P00760); experiment: pfu acid eluted from anhydrotrypsin beads, experiment 1
[7] = target: T1, human neutrophil elastase (human, UniProt P08246 30-247); experiment: pfu acid eluted from HNE beads
T1 construct: also called HNE; immobilized HNE
T1 sequence (looked up): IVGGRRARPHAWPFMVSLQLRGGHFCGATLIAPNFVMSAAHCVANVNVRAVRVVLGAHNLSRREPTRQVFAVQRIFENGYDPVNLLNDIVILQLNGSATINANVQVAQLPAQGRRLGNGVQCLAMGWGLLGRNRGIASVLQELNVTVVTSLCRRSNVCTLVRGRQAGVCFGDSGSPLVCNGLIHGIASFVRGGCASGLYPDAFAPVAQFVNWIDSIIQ

[8] = target: agarose-immobilized streptavidin (UniProt P22629); experiment: titer after 2 h with 5 ul immobilized streptavidin
Chain of agarose-immobilized streptavidin (P22629 37-163 limits assumed): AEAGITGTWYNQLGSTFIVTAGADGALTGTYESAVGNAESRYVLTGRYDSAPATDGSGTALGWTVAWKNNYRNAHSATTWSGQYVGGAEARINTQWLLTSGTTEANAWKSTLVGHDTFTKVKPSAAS

[9] = target: agarose-immobilized anhydro-trypsin (UniProt P00760); experiment: dot blot of phage eluted at pH 2.2 from 2 ul immobilized anhydro-trypsin
[10] = target: agarose-immobilized anhydro-trypsin (UniProt P00760); experiment: titer after 2 h with 2 ul immobilized anhydro-trypsin
[11] = target: agarose-immobilized anhydro-trypsin (UniProt P00760); experiment: dot blot of phage eluted at pH 2.2 from 5 ul immobilized anhydro-trypsin
[12] = target: agarose-immobilized anhydro-trypsin (UniProt P00760); experiment: dot blot of phage eluted at pH 2.2 from 10 ul immobilized anhydro-trypsin
[13] = target: agarose-immobilized anhydro-trypsin (UniProt P00760); experiment: titer after 1 h with 5 ul immobilized anhydro-trypsin
[14] = target: agarose-immobilized anhydro-trypsin (UniProt P00760); experiment: titer after 4 h with 2 ul immobilized anhydro-trypsin
[15] = target: agarose-immobilized anhydro-trypsin (UniProt P00760); experiment: titer after 4 h with 5 ul immobilized anhydro-trypsin
[16] = target: agarose-immobilized streptavidin (UniProt P22629); experiment: titer after 4 h with 5 ul immobilized streptavidin
[17] = target: agarose-immobilized anhydro-trypsin (UniProt P00760); experiment: titer after 2 h with 5 ul immobilized anhydro-trypsin
[18] = target: trypsin (UniProt P00760); experiment: pH 2.2 eluate from immobilized active trypsin, bound in TBS pH 7.5
[19] = target: trypsin (UniProt P00760); experiment: pH 2.2 eluate from immobilized active trypsin, bound in CBS pH 6.5
[20] = target: agarose-immobilized streptavidin (UniProt P22629); experiment: dot blot of phage eluted at pH 2.2 from 5 ul immobilized streptavidin
[21] = target: agarose-immobilized anhydro-trypsin (UniProt P00760); experiment: titer after 1 h with 2 ul immobilized anhydro-trypsin
[22] = target: agarose-immobilized streptavidin (UniProt P22629); experiment: titer after 1 h with 5 ul immobilized streptavidin
[23] = target: agarose-immobilized anhydro-trypsin (UniProt P00760); experiment: titer after 1 h with 10 ul immobilized anhydro-trypsin
[24] = target: agarose-immobilized anhydro-trypsin (UniProt P00760); experiment: titer after 4 h with 10 ul immobilized anhydro-trypsin
[25] = target: agarose-immobilized anhydro-trypsin (UniProt P00760); experiment: titer after 2 h with 10 ul immobilized anhydro-trypsin
[26] = target: M13mp18 phage; experiment: titer of M13MP18 after normal rabbit IgG
[27] = target: M13mp18 phage; experiment: titer of M13MP18 after normal rabbit IgG and protein A beads
[28] = target: T1, human neutrophil elastase; experiment: abbreviated pH elution from HNE beads
Description: (§1) To test if the changes at positions 15, 16, 18, and 19 of the ITI-DI-III fusion protein influence binding of display phage to HNE beads, abbreviated pH elution profiles were measured. […] The beads were washed and phage were eluted as described (Example III), except that only three pH elutions were performed: pH 7.0, 3.5, and 2.0.

[29] = target: T1, human neutrophil elastase; experiment: extended pH elution from HNE beads
Description: To test if phage displaying the ITI-DI-III fusion protein interact strongly with the proteases human neutrophil elastase (HNE) or cathepsin-G, aliquots of display phage were incubated with agarose-immobilized HNE or cathepsin-G beads (HNE beads or Cat-G beads, respectively). […] The procession in lowering pH during the elution was: pH 7.0, 6.0, 5.5, 5.0, 4.5, 4.0, 3.5, 3.0, 2.5, and 2.0. Following elution and neutralization, the various input, wash, and pH elution fractions were titered.

[30] = target: T1, human neutrophil elastase; experiment: HNE beads, abbreviated elution, pH 3.5
Description: as §1

[31] = target: human Cathepsin G (human) (UniProt P08311); experiment: Cat-G beads, pH 4.0 eluate
Chain of human Cathepsin G (human) (P08311 21-244 limits assumed): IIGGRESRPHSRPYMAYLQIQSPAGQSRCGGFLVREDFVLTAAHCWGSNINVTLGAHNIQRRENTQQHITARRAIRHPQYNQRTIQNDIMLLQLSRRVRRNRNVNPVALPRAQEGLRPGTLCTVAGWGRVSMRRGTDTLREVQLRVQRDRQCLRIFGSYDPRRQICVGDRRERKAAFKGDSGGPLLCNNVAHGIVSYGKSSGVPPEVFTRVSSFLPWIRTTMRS

[32] = target: human Cathepsin G (human) (UniProt P08311); experiment: Cat-G beads, pH 3.0 eluate
[33] = target: human Cathepsin G (human) (UniProt P08311); experiment: Cat-G beads, pH 2.5 eluate
[34] = target: T1, human neutrophil elastase; experiment: HNE beads, abbreviated elution, pH 2.0
Description: as §1

[35] = target: T1, human neutrophil elastase; experiment: HNE beads, abbreviated elution, SUM of pH fractions
Description: as §1

[36] = target: human Cathepsin G (human) (UniProt P08311); experiment: Cat-G beads, pH 2.0 eluate
[37] = target: human Cathepsin G (human) (UniProt P08311); experiment: Cat-G beads, pH 4.5 eluate
[38] = target: T1, human neutrophil elastase; experiment: HNE beads, abbreviated elution, pH 7.0
Description: as §1

[39] = target: human Cathepsin G (human) (UniProt P08311); experiment: Cat-G beads, pH 6.0 eluate
[40] = target: human Cathepsin G (human) (UniProt P08311); experiment: Cat-G beads, pH 3.5 eluate
[41] = target: human Cathepsin G (human) (UniProt P08311); experiment: Cat-G beads, pH 5.0 eluate
[42] = target: human Cathepsin G (human) (UniProt P08311); experiment: Cat-G beads, SUM of all pH elution fractions
[43] = target: human Cathepsin G (human) (UniProt P08311); experiment: Cat-G beads, pH 7.0 eluate
[44] = target: human Cathepsin G (human) (UniProt P08311); experiment: Cat-G beads, pH 5.5 eluate

Chain of agarose-immobilized anhydro-trypsin (P00760 24-246): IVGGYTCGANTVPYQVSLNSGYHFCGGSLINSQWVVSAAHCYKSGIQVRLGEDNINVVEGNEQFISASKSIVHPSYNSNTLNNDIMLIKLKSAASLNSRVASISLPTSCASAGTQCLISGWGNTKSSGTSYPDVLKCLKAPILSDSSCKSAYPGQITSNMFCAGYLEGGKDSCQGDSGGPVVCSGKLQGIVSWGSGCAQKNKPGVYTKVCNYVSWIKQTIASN
Chain of trypsin (P00760 24-246): as above

## M13mp18 phage
[1]
  binding relative to M13MP18: 1 fold
  eluted phage, percent of input: 0.00023%
[2]
  pfu after incubation as percent of input: 121%
[3]
  binding relative to M13MP18: 1 fold
  eluted phage, percent of input: 0.3%
[4]
  binding relative to M13MP18: 1 fold
  eluted phage, percent of input: 0.1%
[5]
  binding relative to M13MP18: 1 fold
  eluted phage, percent of input: 0.0005%
[6]
  binding relative to M13MP18: 1 fold
  eluted phage, percent of input: 0.2%
[7]
  binding relative to M13MP18: 1 fold
  eluted phage, percent of input: 0.0003%

## MK phage
[8]
  percent residual titer: 96%
[9]
  percent of total phage recovered in elution buffer: < 1%
[10]
  percent residual titer: 103%
[11]
  percent of total phage recovered in elution buffer: < 1%
[12]
  percent of total phage recovered in elution buffer: < 1%
[13]
  percent residual titer: 110%
[14]
  percent residual titer: 95%
[15]
  percent residual titer: 96%
[16]
  percent residual titer: 98%
[17]
  percent residual titer: 111%
[18]
  percent of input phage: 0.00034%
  total pfu recovered in elution buffer: 1.48e+06 pfu
[19]
  percent of input phage: 0.00028%
  total pfu recovered in elution buffer: 1.35e+06 pfu
[20]
  percent of total phage recovered in elution buffer: < 1%
[21]
  percent residual titer: 97%
[22]
  percent residual titer: 106%
[23]
  percent residual titer: 99%
[24]
  percent residual titer: 106%
[25]
  percent residual titer: 93%

## normal rabbit IgG / normal rabbit serum (antibody)
[26]
  percent of input phage (pfu): 104%
[27]
  percent of input phage (pfu): 88%

B1: MA-ITI-E7 phage (designed binder)
chain: KEDSCQLGYSAGPCVAMFPRYFYNGTSMACETFQYGGCMGNGNNFVTEKECLQTCR
modifications: not fully specified; cysteine pairing not given here
notes: two phage strains (1 and 2) of the same construct were tested; also called MA-ITI-E7 1; MA-ITI-E7 2; not shown: The join to the display carrier
[28]
  fold greater total fraction of input eluted than MA-ITI phage: 10 fold
  fold lower total fraction of input eluted than EpiNE-7 phage: 40 fold
[29]
  fold lower total fraction of input eluted than EpiNE-7 phage: ~40 fold
[30]
  fraction of input: 8e-05

B2: MA-ITI phage (other, human, UniProt P02760 227-281, looked up)
chain: KEDSCQLGYSAGPCMGMTSRYFYNGTSMACETFQYGGCMGNGNNFVTEKECLQTC
notes: residue range counts on the mature ITI light chain (UTI), not on the AMBP precursor entry; also called MA-ITI 2; MA-ITT; not shown: M13 gene III protein, mature
[31]
  fraction of input: 9.6e-07
  total pfu in sample: 440000 pfu
[32]
  fraction of input: 7.8e-07
  total pfu in sample: 360000 pfu
[33]
  fraction of input: 5.9e-07
  total pfu in sample: 270000 pfu
[34]
  fraction of input: 1e-06
[35]
  fraction of input: 1.4e-05
[36]
  fraction of input: 7e-07
  total pfu in sample: 320000 pfu
[37]
  fraction of input: 1.5e-06
  total pfu in sample: 670000 pfu
[38]
  fraction of input: 1e-05
[39]
  fraction of input: 5e-06
  total pfu in sample: 2.3e+06 pfu
[40]
  fraction of input: 9.6e-07
  total pfu in sample: 440000 pfu
[41]
  fraction of input: 2.4e-06
  total pfu in sample: 1.1e+06 pfu
[42]
  fraction of input: 3e-05
  total pfu in sample: 1.4e+07 pfu
[30]
  fraction of input: 3e-06
[43]
  fraction of input: 1.3e-05
  total pfu in sample: 6.1e+06 pfu
[44]
  fraction of input: 2.6e-06
  total pfu in sample: 1.2e+06 pfu

— patent US20070259417A1 (published 2007)
